The target in assay [1] is T1, mouse MAdCAM expressed on cells (mouse, UniProt Q61826 22-405).
T1 construct: whole, on cells
T1 sequence (looked up): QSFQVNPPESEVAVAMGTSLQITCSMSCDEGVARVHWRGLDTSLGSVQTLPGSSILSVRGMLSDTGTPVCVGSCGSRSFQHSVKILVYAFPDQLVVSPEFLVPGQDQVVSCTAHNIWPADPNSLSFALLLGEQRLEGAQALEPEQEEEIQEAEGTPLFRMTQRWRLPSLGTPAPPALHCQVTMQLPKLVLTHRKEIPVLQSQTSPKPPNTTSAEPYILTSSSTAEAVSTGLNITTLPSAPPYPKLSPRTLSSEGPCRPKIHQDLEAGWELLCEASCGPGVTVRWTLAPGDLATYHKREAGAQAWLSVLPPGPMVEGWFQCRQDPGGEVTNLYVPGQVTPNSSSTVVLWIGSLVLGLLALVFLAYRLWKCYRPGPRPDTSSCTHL
The assay is described as follows: cell binding.

Assay [2] deals with T2, human MAdCAM expressed on cells (human, UniProt Q13477 19-382).
T2 construct: whole, on cells
T2 sequence (looked up): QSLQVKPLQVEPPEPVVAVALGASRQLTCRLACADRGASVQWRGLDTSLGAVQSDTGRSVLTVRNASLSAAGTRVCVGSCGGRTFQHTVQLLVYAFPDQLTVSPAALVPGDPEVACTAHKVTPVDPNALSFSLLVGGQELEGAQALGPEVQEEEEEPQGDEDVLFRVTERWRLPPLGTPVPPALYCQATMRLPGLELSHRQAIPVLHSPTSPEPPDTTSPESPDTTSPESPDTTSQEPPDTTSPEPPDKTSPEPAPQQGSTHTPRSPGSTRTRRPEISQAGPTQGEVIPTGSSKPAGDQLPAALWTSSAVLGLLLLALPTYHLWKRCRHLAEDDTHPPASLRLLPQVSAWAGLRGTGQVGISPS
Nature of the assay: cell binding.

B1: MAdCAM Antibody Table 2 clone 54 (antibody, V domains shown)
VH: QVQLVQSGAEVKKPGSSVKVSCKASGGTLSRYGVSWVRQAPGQGLEWMGGIIPIFGTTNYAQKFQGRVTITADESTSTAYMELSSLRSEDTAVYYCARDRVYYDSSGYPTWYFDLWGRGTLVTVSS
VL: EIVMTQSPATLSVSPGERATLSCRASQSVSSSYLAWYQQKPGQAPRLLIYGASTRATGIPARFSGSGSGTEFTLTISSLQSEDFAVYYCQQYGSSPITFGQGTKVEIK
notes: IgG format
On to B1, for which the binding result is listed as “no binding” in assay [1] and “binds” in assay [2].

B2: MAdCAM Antibody Table 2 clone 62 (antibody, V domains shown)
VH: QVQLVQSGAEVKKPGASVKVSCKASGYTFTSYDINWVRQAPGQGLEWMGWINPNSGTTGYAQKFQGRVTMTRDTSTSTVYMELSSLRSEDTAVYYCARSPYYYYGMDVWGQGTTVTVSS
VL: DIQMTQSPSSLSASVGDRVTITCRASHFISRWVAWYQQKPGKAPKLLIYAASTLQSGVPSRFSGSGSGTDFTLTISSLQPEDFATYYCQQSYSGISFGPGTKVDIK
notes: IgG format
In the case of B2, the binding result in assay [1] is recorded as “no binding”; in assay [2], “binds”.

B3: MAdCAM Antibody Table 2 clone 43 (antibody, V domains shown)
VH: QVQLVQSGAEVKKPGASVKVSCKASGYTFTSYGISWVRQAPGQGLEWMGWMHPKSGDTGLTQKFQGRVTMTRDTSTSTVYMELSSLRSEDTAVYYCARDTPYYYYGMDVWGQGTTVTVSS
VL: DIQMTQSPSSLSASVGDRVTITCRASQSISSWLAWYQQKPGKAPKLLIYAASSLQSGVPSRFSGSGSGTDFTLTISSLQPEDFATYYCQQSYSVPITFGQGTKVEIK
notes: IgG format
In the case of B3, the binding result in assay [1] is reported as “no binding”; in assay [2], “binds”.

B4: MAdCAM Antibody Table 2 clone 61 (antibody, V domains shown)
VH: QVQLVQSGAEVKKPGASVKVSCKASGDTFTGYYIHWVRQAPGQGLEWMGWINPNSGGTNYAQKFQGRVTMTRDTSTSTVYMELSSLRSEDTAVYYCARSGLWLGSYYGMDVWGQGTLVTVSS
VL: DIQMTQSPSSLSASVGDRVTITCRASQTISIWLAWYQQKPGKAPKLLIYDASTLQSGVPSRFSGSGSGTDFTLTISSLQPEDFATYYCQQYSSYPLTFGQGTKVEIK
notes: IgG format
As to B4, the values for the binding result in assay [1] and in assay [2] were “no binding” and “binds”, respectively.

B5: MAdCAM Antibody Table 2 clone 44 (antibody, V domains shown)
VH: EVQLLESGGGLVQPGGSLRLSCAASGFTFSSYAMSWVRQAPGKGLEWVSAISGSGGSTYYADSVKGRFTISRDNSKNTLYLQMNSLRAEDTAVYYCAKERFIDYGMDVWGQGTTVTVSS
VL: DIQMTQSPSSLSASVGDRVTITCQASQDISNYLNWYQQKPGKAPKLLIYAASSLQSGVPSRFSGSGSGTDFTLTISSLQPEDFATYYCQQTYSGWTFGPGTKVDIK
notes: IgG format
In the case of B5, the results for the binding result in assay [1] and in assay [2] were “no binding” and “binds”, respectively.

B6: MAdCAM Antibody Table 2 clone 68 (antibody, V domains shown)
VH: EVQLLESGGGLVQPGGSLRLSCAASGFTFGDYAMSWVRQAPGKGLEWVAVVSYDGTNKYYADSVKGRFTISRDNSKNTLYLQMNSLRAEDTAVYYCAKDICSSTSCYFDLWGRGTLVTVSS
VL: DIQMTQSPSSLSASVGDRVTITCRASQNINNYVNWYQQKPGKAPKLLIYDASNLETGVPSRFSGSGSGTDFTLTISSLQPEDFATYYCQQANSFPPTFGQGTRLEIK
notes: IgG format
As for B6, the binding result was “no binding” in assay [1] and “binds” in assay [2].

B7: MAdCAM Antibody Table 2 clone 57 (antibody, V domains shown)
VH: EVQLLESGGGLVQPGGSLRLSCAASGFSVSSNYMSWVRQAPGKGLEWVAGISYDGSSKPYADSVKGRFTISRDNSKNTLYLQMNSLRAEDTAVYYCARSRGIAARPLQHWGQGTLVTVSS
VL: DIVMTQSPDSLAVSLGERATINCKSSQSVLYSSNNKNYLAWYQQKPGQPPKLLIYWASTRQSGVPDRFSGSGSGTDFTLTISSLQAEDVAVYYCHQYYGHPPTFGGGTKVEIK
notes: IgG format
In the case of B7, the binding result is recorded as “no binding” in assay [1] and “binds” in assay [2].

B8: MAdCAM Antibody Table 2 clone 66 (antibody, V domains shown)
VH: QVQLVQSGAEVKKPGASVKVSCKASGYTFTGHYMHWVRQAPGQGLEWMGIINPSGGSTSYAQKFQGRVTMTRDTSTSTVYMELSSLRSEDTAVYYCARDGAWFGEEYYYGMDVWGQGTTVTVSS
VL: DIQMTQSPSSLSASVGDRVTITCRASQGISNWLAWYQQKPGKAPKLLIYDASNLETGVPSRFSGSGSGTDFTLTISSLQPEDFATYYCQQYYSFPLYTFGQGTKVEIK
notes: IgG format
As to B8, the binding result is given as “no binding” in assay [1] and “binds” in assay [2].

B9: MAdCAM Antibody Table 2 clone 59 (antibody, V domains shown)
VH: EVQLLESGGGLVQPGGSLRLSCAASGFSFSDYGMHWVRQAPGKGLEWVSAISGSGGSTYYADSVKGRFTISRDNSKNTLYLQMNSLRAEDTAVYYCARDGGWQPAAILDYWGQGTLVTVSS
VL: DIQMTQSPSSLSASVGDRVTITCRASQGISNNLNWYQQKPGKAPKLLIYDASNLETGVPSRFSGSGSGTDFTLTISSLQPEDFATYYCQQSYSTPLTFGGGTKVEIK
notes: IgG format
Consider B9, for which the binding result was “no binding” in assay [1] and “binds” in assay [2].

B10: MAdCAM Antibody Table 2 clone 67 (antibody, V domains shown)
VH: QVQLVQSGAEVKKPGASVKVSCKASGYTFTGYYMHWVRQAPGQGLEWMGMIYPRDGSTSYAQKFQGRVTMTRDTSTSTVYMELSSLRSEDTAVYYCAMTGWGYGMDVWGKGTTVTVSS
VL: DIQMTQSPSSLSASVGDRVTITCRASQGINNYLAWYQQKPGKAPKLLIYDASTLQSGVPSRFSGSGSGTDFTLTISSLQPEDFATYYCQQSYSAPPTFGQGTKLEIK
notes: IgG format
Turning to B10, the figures for the binding result in assay [1] and in assay [2] were “no binding” and “binds”, respectively.

B11: MAdCAM Antibody Table 2 clone 56 (antibody, V domains shown)
VH: EVQLVESGGGLVKPGGSLRLSCAASGFTFSSYWMSWVRQAPGKGLEWVSAIGTGGGTYYAAPVKGRFTISRDDSKNTLYLQMNSLKTEDTAVYYCAREWLVPYYGMDVWGQGTTVTVSS
VL: DIQMTQSPSSLSASVGDRVTITCRASQSISRWLAWYQQKPGKAPKLLIYGASNLQSGVPSRFSGSGSGTDFTLTISSLQPEDFATYYCQQSYSTPWTFGQGTKVEIK
notes: IgG format
As for B11, the binding result is recorded as “no binding” in assay [1] and “binds” in assay [2].

B12: MAdCAM Antibody Table 2 clone 41 (antibody, V domains shown)
VH: QVQLVQSGAEVKKPGASVKVSCKASGYTFTSYYMHWVRQAPGQGLEWMGIINPSGGSTSYAQKFQGRVTMTRDTSTSTVYMELSSLRSEDTAVYYCARDTGYSYGRYYYYGMDVWGQGTLVTVSS
VL: DIQMTQSPSSLSASVGDRVTITCRASQSIGRWLAWYQQKPGKAPKLLIYDASNLQSGVPSRFSGSGSGTDFTLTISSLQPEDFATYYCQQSYSIPITFGQGTKVEIK
notes: IgG format
Take B12: the binding result is “no binding” in assay [1] and “binds” in assay [2].

B13: MAdCAM Antibody Table 2 clone 38 (antibody, V domains shown)
VH: QVQLVQSGAEVKKPGASVKVSCKASGYTFTDYFLHWVRQAPGQGLEWMGWMNPTSGNTGYAQKFQGRVTMTRDTSTSTVYMELSSLRSEDTAVYYCAREGEGSGFDYWGQGTLVTVSS
VL: DIQMTQSPSSLSASVGDRVTITCRASQGINSWLAWYQQKPGKAPKLLIYDASNLETGVPSRFSGSGSGTDFTLTISSLQPEDFATYYCQQSYSTPLTFGGGTKVEIK
notes: IgG format
Regarding B13, the binding result was “no binding” in assay [1] and “binds” in assay [2].

B14: MAdCAM Antibody Table 2 clone 53 (antibody, V domains shown)
VH: QVQLVQSGAEVKKPGASVKVSCKASGYTFTSYYMHWVRQAPGQGLEWMGWMNPNSGNTGYAQKFQGRVTMTRDTSTSTVYMELSSLRSEDTAVYYCAREGLGYCTNGVCWNYYGMDVWGQGTLVTVSS
VL: DIQMTQSPSSLSASVGDRVTITCRASQGISSWLAWYQQKPGKAPKLLIYGASSLQSGVPSRFSGSGSGTDFTLTISSLQPEDFATYYCQQSYSTPYTFGQGTKVEIK
notes: IgG format
For B14, the binding result in assay [1] is “no binding”; in assay [2], “binds”.

B15: MAdCAM Antibody Table 2 clone 42 (antibody, V domains shown)
VH: QVQLVQSGAEVKKPGASVKVSCKASGYTLTDYYMHWVRQAPGQGLEWMGIINPSGGSTSYAQKFQGRVTMTRDTSTSTVYMELSSLRSEDTAVYYCAREEYSSSSGYFDYWGQGTLVTVSS
VL: DIQMTQSPSSLSASVGDRVTITCRASQGISSWLAWYQQKPGKAPKLLIYAASSLQSGVPSRFSGSGSGTDFTLTISSLQPEDFATYYCQQSYSTPLTFGQGTKVEIK
notes: IgG format
As for B15, the results for the binding result in assay [1] and in assay [2] were “no binding” and “binds”, respectively.

B16: MAdCAM Antibody Table 2 clone 39 (antibody, V domains shown)
VH: QVQLVQSGAEVKKPGASVKVSCKASGYTFTSYYMHWVRQAPGQGLEWMAWMNPNSGNTGYAQKFQGRVTMTRDTSTSTVYMELSSLRSEDTAVYYCARDYDFWSGSLGYWGQGTLVTVSS
VL: DIQMTQSPSSLSASVGDRVTITCRASQGISNYLAWYQQKPGKAPKLLIYAASSLQSGVPSRFSGSGSGTDFTLTISSLQPEDFATYYCQQSYSTPWTFGQGTKVEIK
notes: IgG format
Turning to B16, the binding result in assay [1] is given as “no binding”; in assay [2] it was “binds”.

B17: MAdCAM Antibody Table 2 clone 64 (antibody, V domains shown)
VH: EVQLLESGGGLVQPGGSLRLSCAASGFTFSNSDMNWVRQAPGKGLEWVAHIWNDGSQKYYADSVKGRFTISRDNSKNTLYLQMNSLRAEDTAVYYCARDRTDPGYSSAMDVWGQGTTVTVSS
VL: DIQMTQSPSSLSASVGDRVTITCRASQDIRNYLGWYQQKPGKAPKLLIYDASSLETGVPSRFSGSGSGTDFTLTISSLQPEDFATYYCQQATSLPLTFGGGTKVEIK
notes: IgG format
Take B17: the figures for the binding result in assay [1] and in assay [2] were “no binding” and “binds”, respectively.

The record behind these values is patent US20230235004A1 (published 2023).
